Source: patent US20250074980A1 (BRIGHAM AND WOMEN S HOSPITAL, published 2025)

T1: CEACAM3 (recombinant protein) (human, UniProt P40198 35-155, limits assumed)
T1 construct: construct not described
T1 sequence (looked up): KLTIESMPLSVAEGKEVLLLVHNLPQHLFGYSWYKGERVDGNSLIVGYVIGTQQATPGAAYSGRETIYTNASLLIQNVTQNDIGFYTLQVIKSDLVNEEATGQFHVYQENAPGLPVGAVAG

T2: CEACAM6 (recombinant protein) (human, UniProt P40199 35-320)
T2 construct: construct not described
T2 sequence (looked up): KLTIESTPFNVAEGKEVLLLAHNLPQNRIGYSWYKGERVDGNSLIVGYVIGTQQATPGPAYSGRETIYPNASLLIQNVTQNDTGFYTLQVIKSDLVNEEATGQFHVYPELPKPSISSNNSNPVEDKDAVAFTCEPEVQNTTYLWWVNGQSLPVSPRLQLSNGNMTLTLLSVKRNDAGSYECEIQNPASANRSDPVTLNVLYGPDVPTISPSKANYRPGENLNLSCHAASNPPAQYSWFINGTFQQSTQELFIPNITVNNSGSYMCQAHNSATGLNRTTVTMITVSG

T3: His-tagged CEACAM1 (human, UniProt P13688 35-428)
T3 construct: 45 kDa SPR analyte; also called CEACAM1-HIS; CEACAM1 analyte
T3 sequence: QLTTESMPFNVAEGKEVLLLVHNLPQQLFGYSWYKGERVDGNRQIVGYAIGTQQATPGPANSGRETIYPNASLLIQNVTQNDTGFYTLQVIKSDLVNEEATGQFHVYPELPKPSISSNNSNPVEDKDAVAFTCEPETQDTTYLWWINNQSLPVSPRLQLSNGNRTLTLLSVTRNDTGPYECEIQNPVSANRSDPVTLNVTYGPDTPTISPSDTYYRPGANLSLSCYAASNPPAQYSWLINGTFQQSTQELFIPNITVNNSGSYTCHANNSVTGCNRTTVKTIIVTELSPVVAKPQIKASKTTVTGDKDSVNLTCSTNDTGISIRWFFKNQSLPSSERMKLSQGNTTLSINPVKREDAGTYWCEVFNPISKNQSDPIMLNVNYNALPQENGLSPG


Columns and labels:
[1] = biological target: T1, CEACAM3 (recombinant protein); assay: SPR single-cycle kinetics, antibody captured on Protein A, CEACAM-3 injected at three rising concentrations
Protocol: (§1) In order to assess the binding of the humanized, affinity matured reformatted lead IgGs, single-cycle kinetics analysis was performed on crude supernatants using a Biacore T200 running Biacore T200 Control Software V2.0.1 and Biacore T200 Evaluation Software V3.0. Antibodies were diluted in HBS-P+ to a final concentration of 0.5 μg/ml. At the start of each cycle, antibodies were loaded onto Fc2, Fc3 and Fc4 of the Protein A chip. IgGs were captured at a flow rate of 10 μl/min to give an immobilisation level (RL) of ˜100 RU (a level calculated to obtain a Rₘₐₓ of ˜50-150 RU once the analyte is bound). The surface was then allowed to stabilize. Single-cycle kinetics data was obtained with CEACAM1 as the analyte at a flow rate of 80 μl/min to minimize any potential mass transfer effects. Multiple repeats with the parent (VH1/Vκ8 S29A) antibody were performed to check the stability of the surface and analyte over the kinetic cycles. The signal from the reference channel Fc1 (no antibody) was subtracted from that of Fc2, Fc3 and Fc4 to correct for differences in non-specific binding to the reference surface. A three point, two-fold dilution range from 70 nM to 280 nM CEACAM1 without regeneration between each concentration was used. The signal from each antibody blank run (no CEACAM1) was subtracted to correct for differences in surface stability. The association phase for the three injections of increasing concentrations of CEACAM1 was monitored for 80 seconds each time and a single dissociation phase was measured for 150 seconds following the last injection of CEACAM1. Regeneration of the Protein A surface was conducted using two injections of 10 mM glycine-HCL pH 1.5 followed by a stabilization period of 250 seconds.
(§2) To further assess the binding selectivity of CEACAM1 antibodies VH0/Vκ0, CP08H03/Vκ8 S29A, CP08H03/CP08F05 CEACAM1 over other proteins, binding affinities to CEACAM1, CEACAM3, CEACAM5, and CEACAM6 were compared using single-cycle kinetics analysis performed as described above. Single cycle kinetics was conducted using CEACAM concentrations from 280 nM to 70 nM.

[2] = biological target: T2, CEACAM6 (recombinant protein); assay: SPR single-cycle kinetics, antibody captured on Protein A, CEACAM-6 injected at three rising concentrations [Cont.]
Protocol: as §1, §2

His-tagged CEACAM1 [3] = biological target: T3, His-tagged CEACAM1; assay: SPR single-cycle, supernatant IgG captured
Method in brief: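 Antibody IgG was produced by transient PEI transfection of HEK EBNA cells in 6-well plates, with supernatants collected 5-7 days later, quantified by ELISA and filtered. Binding was measured by single-cycle surface plasmon resonance on a Biacore T200 at 25° C in HBS-P+ (pH 7.4), capturing IgG on Protein A and flowing His-tagged CEACAM1 as analyte. Kon, koff and Kd were obtained by fitting, and relative KD was expressed against the parent antibody tested in the same experiment.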

His-tagged CEACAM1 [4] = biological target: T3, His-tagged CEACAM1; assay: SPR single-cycle, purified IgG captured
Method in brief: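 Binding was measured by surface plasmon resonance in single-cycle kinetics mode on a Biacore T200, running in HBS-P+ (pH 7.4) at 25° C. His-tagged CEACAM1 served as analyte over purified IgG captured on a Series S Protein A chip. After subtraction of reference-channel and blank-run signals, kon, koff and Kd were fitted, and relative KD was expressed against the parent antibody from the same experiment.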

Row | Binder | binding result [1] | binding result [2] | Kd (His-tagged CEACAM1 [3]) [nM] | koff (His-tagged CEACAM1 [3]) [s⁻¹] | kon (His-tagged CEACAM1 [3]) [M⁻¹ s⁻¹] | relative KD to parent (His-tagged CEACAM1 [3]) | Kd (His-tagged CEACAM1 [4]) [nM] | koff (His-tagged CEACAM1 [4]) [s⁻¹] | kon (His-tagged CEACAM1 [4]) [M⁻¹ s⁻¹] | relative KD to parent (His-tagged CEACAM1 [4])
1 | chimeric antibody VH0/Vκ0 (antibody, IgG4, V domains shown, IgG4 (S241P), kappa; also called VH0/Vκ0 (control); Chimeric VH0/Vκ0) VH: EVQLVESGGDLVKPGGSLKLACAASGFIFSSHGMSWVRQTPDKRLEWVATISSGGTYTYYPDSVKGRFTISRDNDKNTLYLQMNSLKSEDTAMYYCARHDFDYDAAWFAYWGQGTLVTVSS VL: QIVLTQSPALMSASPGVKVTMTCSANSSVSYMYWYRQKPRSSPKPWIYLTSNLASGVPARFSGSGSGTSYSLTISSMEAEDAATYYCQQWSSNPPTFGSGTKLEIK | no binding | no binding |  |  |  |  |  |  |  | 
2 | VH1/Vκ8 S29A (antibody, IgG4, V domains shown, IgG4 (S241P), kappa; also called Parent; Parent (VH1/Vκ8 S29A)) VH: EVQLLESGGGLVQPGGSLRLSCAASGFIFSSHGMSWVRQAPGKGLEWVATISSGGTYTYYPDSVKGRFTISRDNSKNTLYLQMNSLKAEDTAMYYCARHDFDYDAAWFAYWGQGTLVTVSS VL: EIVLTQSPATLSLSPGERATLSCRANSAVSYMYWYQQKPGQAPRPWIYLTSNRATGVPARFSGSGSGTDYTLTISSLEPEDFAVYYCQQWSSNPPTFGQGTKLEIK |  |  | 550 | 0.053 | 96000 | 1 | 480 | 0.19 | 400000 | 1

Continued by falling Kd (His-tagged CEACAM1 [3]), values first:

Row | binding result [1] | binding result [2] | Kd (His-tagged CEACAM1 [3]) [nM] | koff (His-tagged CEACAM1 [3]) [s⁻¹] | kon (His-tagged CEACAM1 [3]) [M⁻¹ s⁻¹] | relative KD to parent (His-tagged CEACAM1 [3]) | Kd (His-tagged CEACAM1 [4]) [nM] | koff (His-tagged CEACAM1 [4]) [s⁻¹] | kon (His-tagged CEACAM1 [4]) [M⁻¹ s⁻¹] | relative KD to parent (His-tagged CEACAM1 [4]) | Binder
3 | no binding | no binding | 130 | 0.0085 | 65000 | 4.2 | 120 | 0.0075 | 63000 | 4 | CP08H03/Vκ8 S29A (antibody, IgG4, V domains shown, IgG4 (S241P), kappa; also called CP08_H03/Parent VL; CP08_H03/Parental) VH: EVQLLESGGGLVQPGGSLRLSCAASGFIFSSHGMSWVRQAPGKGLEWVATISSGGTYTYYPDSVKGRFTISRDNSKNTLYLQMNSLKAEDTAMYYCARHDFDYFPYWFAHWGQGTLVTVSS VL: EIVLTQSPATLSLSPGERATLSCRANSAVSYMYWYQQKPGQAPRPWIYLTSNRATGVPARFSGSGSGTDYTLTISSLEPEDFAVYYCQQWSSNPPTFGQGTKLEIK
4 | no binding | no binding | 110 | 0.0074 | 70000 | 5.2 | 95 | 0.0069 | 73000 | 5 | CP08H03/CP08F05 (antibody, V domains shown, IgG4 (S241P), kappa) VH: EVQLLESGGGLVQPGGSLRLSCAASGFIFSSHGMSWVRQAPGKGLEWVATISSGGTYTYYPDSVKGRFTISRDNSKNTLYLQMNSLKAEDTAMYYCARHDFDYFPYWFAHWGQGTLVTVSS VL: EIVLTQSPATLSLSPGERATLSCRANSAVSYMYWYQQKPGQAPRPWIYLTSNRATGVPARFSGSGSGTDYTLTISSLEPEDFAVYYCQQWTSNPPTFGQGTKLEIK
